The values below come from the DeepSol protein solubility set.

This series can be described thus: soluble on expression in E. coli; label from the status in PepcDB or PDB records.
“MLKSELRKKVLHKRINLSEEERRRLSEKVISNLKSLPEFKKSKKVALYCPIKGEVDLTPLFPEVLKEKELILPKVEGNEISLYRVHSPACLGVGAFGIMEPVEGERVNPEDVDFIAVPGVAFDLEGYRLGFGKGYYDRLLKRVKGLKVGVAYSFQVFERLPRDAWDIPVDVLVTEKNVRRLRDGRSLEHHHHHH”: the “soluble on expression in E. coli” value is “soluble”.
Take “MGQTVNEDSMDVKKENQEKTPQSSTSSVQRDDFHWEEYLKETGSISAPSECFRQSQIPPVNDFKVGMKLEARDPRNATSVCIATVIGITGARLRLRLDGSDNRNDFWRLVDSPDIQPVGTCEKEGDLLQPPLGYQMNTSSWPMFLLKTLNGSEMASATLFKKEPPKPPLNNFKVGMKLEAIDKKNPYLICPATIGDVKGDEVHITFDGWSGAFDYWCKYDSRDIFPAGWCRLTGDVLQPPGTS”: the “soluble on expression in E. coli” value is reported as “soluble”.
With “MATTKPYRVLLYYMYTTIENPEEFAAEHLEFCNSLELKGRILVAKEGINGTCSGTVEQTEKYMEAMNNDPRFDGIVFKIDEADGHAFKKMHVRPRPELVTLRLEDDINPHEITGKYLEPKDFYEAMKQEDTVIIDARNDYEFDLGHFKGAIKPDIESFRELPDWIRENKEVLEGKKILTYCTGGIRCEKFSGWLVREGYEDVSQLHGGIVTYGKDPEVQGELWDGQCYVFDERIAVPVNQKEHVIVGKDHFTGEPCERYVNCSNPECNKKILCSEENEAKYLRACSHECRVSPRNRYVIQHELTEEQVAAALEQIEAGKLEHHHHHH” the entry was “soluble”.
With “SLSLESLEWMAFDSFLLWRSEESIDARILLVEINQNDNYSLTSTISNSSFIGVIEKLQVYQPKVIGLEVDQHLLINSQEDKLAKIFQKYKNLIANEKILPLQVHSYLDLPNEQITFADQILDNDGKSRRSLLAINTSNGYKLSLAMELARIYLAEKNISLENSRLGKTKLPRFLPNSGGYIRADASGFQVLINFRSGNQRFRTLSGEDIKNGKFNPEWIRDRIVIIGITNTHNQGFIPTSAITSVKSASTQVNKLEIQAHAISQIISAVLDGRPLINTWNDG”, the “soluble on expression in E. coli” value was “soluble”.
Regarding “MSLKIVIIGGVAGGMSAATRLRRLMEDAEIVVMEKGPFVSFANCGLPYYVSGEIAEREQLLVQTPEALKARFNLDVRPHHEVVAIDPIEKVITVKHETEILTEHYDKLILSPGAKPFVPPITGLAEAKNVFSLRNVPDLDQIMTALTPETKRAVVIGAGFIGLEMAENLQKRGLEVTLVEKAPHVLPPLDEEMAAFVKAELSKNNVQVITGQSAVAFEEEGQVIRLEDGQTLASDLTILSVGVQPENTLAVEAGVATGLRGGIVVDEHYQTNQPDIYAVGDAIVVKQQITQEDALISLASPANRQGRQVADVIAGLERKNQGSIGTAIVRVFDLTAASTGLSERAAKAAGLTTAVVHISGKDHAGYYPGATDLQLKLVFHPTTGEIYGAQGIGAKGVDKRIDILATAIKGQLTIFDLPELEFTYAPPFGSAKDPVNMLGYAAMNLVEGLSENVQWYELSNELANGAVLLDVRNPAERANGQFKNAVSIPLNELRERLEELDKSTEYIVSCHSGLRSYIAERMLKQAGISAKNLDGAFALYRMVKPEELENEGHHHHHH”, the “soluble on expression in E. coli” value is “soluble”.
On to “MGSSHHHHHHSSGLVPRGSHMASASAAGGQQSFDLLVIGGGSGGLACAKEAAQLGKKVAVADYVEPSPRGTKWGLGGTCVNVGCIPKKLMHQAALLGGMIRDAHHYGWEVAQPVQHNWKTMAEAVQNHVKSLNWGHRVQLQDRKVKYFNIKASFVDEHTVRGVDKGGKATLLSAEHIVIATGGRPRYPTQVKGALEYGITSDDIFWLKESPGKTLVVGASYVALECAGFLTGIGLDTTVMMRSIPLRGFDQQMSSLVTEHMESHGTQFLKGCVPSHIKKLPTNQLQVTWEDHASGKEDTGTFDTVLWAIGRVPETRTLNLEKAGISTNPKNQKIIVDAQEATSVPHIYAIGDVAEGRPELTPTAIKAGKLLAQRLFGKSSTLMDYSNVPTTVFTPLEYGCVGLSEEEAVALHGQEHVEVYHAYYKPLEFTVADRDASQCYIKMVCMREPPQLVLGLHFLGPNAGEVTQGFALGIKCGASYAQVMQTVGIHPTCSEEVVKLHISKRSGLEPTVTGCCG”, for which the “soluble on expression in E. coli” value was “soluble”.
